In doi:10.1101/2024.10.05.616753 one finds stoichiometry N data, which are given here for 1 molecule.

The test deals with T1, recombinant human C-reactive protein (human), P02741.
T1 chain: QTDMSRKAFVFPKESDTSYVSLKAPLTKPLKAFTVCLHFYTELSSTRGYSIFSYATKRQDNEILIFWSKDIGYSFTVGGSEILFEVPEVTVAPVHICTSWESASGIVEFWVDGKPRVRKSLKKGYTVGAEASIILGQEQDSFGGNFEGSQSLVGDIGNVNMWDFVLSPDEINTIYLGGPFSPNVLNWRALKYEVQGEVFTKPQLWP
The test can be described thus: cryo-EM structure. Particulars: remark: other sources report otherwise.

B1: recombinant human C-reactive protein, P02741-1 19-224 (natural protein)
chain: QTDMSRKAFVFPKESDTSYVSLKAPLTKPLKAFTVCLHFYTELSSTRGYSIFSYATKRQDNEILIFWSKDIGYSFTVGGSEILFEVPEVTVAPVHICTSWESASGIVEFWVDGKPRVRKSLKKGYTVGAEASIILGQEQDSFGGNFEGSQSLVGDIGNVNMWDFVLSPDEINTIYLGGPFSPNVLNWRALKYEVQGEVFTKPQLWP
For B1, the stoichiometry N was found to be 5.

Broadly, the stoichiometry N is a count of units in the complex or per binding partner.
